Results taken from article doi:10.1101/2021.07.29.454387 (bioRxiv, 2021).

Assays:
Assay in all cases: ITC
[1] = biological target: T1, PDZ domain of human PDLIM5 (residues 1-84) (human, UniProt Q96HC4 1-84)
T1 sequence: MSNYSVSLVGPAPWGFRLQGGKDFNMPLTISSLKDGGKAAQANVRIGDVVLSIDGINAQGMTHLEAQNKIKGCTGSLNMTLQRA

[2] = biological target: T2, PDZ domain of human PDLIM3 (residues 1-84) (human, UniProt Q53GG5 1-84)
T2 sequence: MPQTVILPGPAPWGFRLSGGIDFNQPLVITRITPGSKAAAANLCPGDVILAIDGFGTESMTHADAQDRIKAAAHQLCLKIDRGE

[3] = biological target: PDLIM7 PDZ domain (1-84) W14Y (human, UniProt Q9NR12 1-84, W14Y)
[4] = biological target: PDLIM7 PDZ domain (1-84) Q67A (human, UniProt Q9NR12 1-84, Q67A)
[5] = biological target: T3, PDZ domain of human PDLIM1 (residues 1-84) (human, UniProt O00151 1-84)
T3 sequence: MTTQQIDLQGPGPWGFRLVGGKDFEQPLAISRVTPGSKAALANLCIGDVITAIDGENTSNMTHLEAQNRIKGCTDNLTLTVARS

[6] = biological target: T4, PDZ domain of human PDLIM4 (residues 1-84) (human, UniProt P50479 1-84)
T4 sequence: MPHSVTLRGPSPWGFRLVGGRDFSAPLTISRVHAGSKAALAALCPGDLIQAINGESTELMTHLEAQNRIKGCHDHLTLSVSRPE

[7] = biological target: PDLIM7 PDZ domain (1-84) H63A (human, UniProt Q9NR12 1-84, H63A)
[8] = biological target: PDLIM7 PDZ domain (1-84) P11E (human, UniProt Q9NR12 1-84, P11E)
[9] = biological target: T5, PDZ domain of human PDLIM2 (residues 1-84) (human, UniProt Q96JY6 1-84)
T5 sequence: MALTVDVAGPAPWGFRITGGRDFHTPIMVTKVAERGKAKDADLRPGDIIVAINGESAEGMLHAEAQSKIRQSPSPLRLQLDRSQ

[10] = biological target: PDZ domain of human PDLIM7 (residues 1-84) (human, UniProt Q9NR12 1-84)

Measured: binding result

Chain of PDZ domain of human PDLIM7 (residues 1-84) (Q9NR12 1-84): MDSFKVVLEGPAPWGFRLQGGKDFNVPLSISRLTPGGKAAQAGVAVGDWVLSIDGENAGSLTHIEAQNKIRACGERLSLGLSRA
Chain of PDLIM7 PDZ domain (1-84) P11E (Q9NR12 1-84 P11E): as the sequence (Q9NR12 1-84) above, with P11E counted along it
Chain of PDLIM7 PDZ domain (1-84) Q67A (Q9NR12 1-84 Q67A): as the sequence (Q9NR12 1-84) above, with Q67A counted along it
Chain of PDLIM7 PDZ domain (1-84) H63A (Q9NR12 1-84 H63A): as the sequence (Q9NR12 1-84) above, with H63A counted along it
Chain of PDLIM7 PDZ domain (1-84) W14Y (Q9NR12 1-84 W14Y): as the sequence (Q9NR12 1-84) above, with W14Y counted along it

HGNFAFEGIGDEDL [SNX17 C-terminal peptide (457-470) used for ITC]
binds: all assays above

HGNFAFEGIGDRDL [SNX17 C-terminal peptide E468R]
binds: [10]
